Data taken from article PMC3210727 (Science (New York, N.Y.), 2011).

How the values were obtained:
Experiment in all cases: flow cytometry on cells
[1] = target: surface-expressed H3 HA from A/Hong Kong/1/1968, cleaved (HA) (Influenza A virus (strain A/Hong …, UniProt Q91MA7))
[2] = target: surface-expressed H7 HA, uncleaved (HA0) (Influenza A virus H7, strain not named; …, UniProt Q6VMK1)
[3] = target: surface-expressed H3 HA from A/Hong Kong/1/1968, uncleaved precursor (HA0) (Influenza A virus (strain A/Hong …, UniProt Q91MA7))
[4] = target: surface-expressed H7 HA, cleaved (HA) (Influenza A virus H7, strain not named; …, UniProt Q6VMK1)
[5] = target: surface-expressed H3 HA from A/Hong Kong/24/1985, cleaved (HA) (Influenza A virus A/Hong Kong/24/1985 …, UniProt Q38TK5, strain)

Measured: binding result

B1: human monoclonal antibody CR8020 (antibody, V domains shown)
VH: QVQLQQSGAEVKTPGASVKVSCKASGYTFTSFGVSWIRQAPGQGLEWIGWISAYNGDTYYAQKFQARVTMTTDTSTTTAYMEMRSLRSDDTAVYYCAREPPLFYSSWSLDNWGQGTLVTVSS
VL: EIVMTQSPGTLSLSPGERATLSCRASQSVSMNYLAWFQQKPGQAPRLLIYGASRRATGIPDRISGSGSGTDFTLTISRLEPADFAVYYCQQYGTSPRTFGQGAKVEIK
binds: [1] | [2] | [3] | [4] | [5]
